Values quoted from earlier work in patent publication US20100068187A1, “TRANSCRIPTION FACTORS FOR DIFFERENTIATION OF ADULT HUMAN OLFACTORY PROGENITOR CELLS” (priority 2006, published 2010).

Test system: Human NSFCs
Details: incubated in the presence of neurotrophic factor

Molecule	neuronal differentiation of human NSFCs
GDNF: glial-derived neurotrophic factor (protein, UniProt P39905 78-211, looked up) Glial cell line-derived …: SPDKQMAVLPRRERNRQAAAANPENSRGKGRRGQRGKNRGCVLTAIHLNVTDLGLGYETKEELIFRYCSGSCDAAETTYDKILKNLSRNRRLVSDKVGQACCRPIAFDDDLSFLDDNLVYHILRKHSAKRCGCI	refractory to neuronal differentiation
BDNF: brain-derived neurotrophic factor (protein, UniProt P23560 19-247, looked up) Neurotrophic factor BDNF …: APMKEANIRGQGGLAYPGVRTHGTLESVNGPKAGSRGLTSLADTFEHVIEELLDEDQKVRPNEENNKDADLYTSRVMLSSQVPLEPPLLFLLEEYKNYLDAANMSMRVRRHSDPARRGELSVCDSISEWVTAADKKTAVDMSGGTVTVLEKVPVSKGQLKQYFYETKCNPMGYTKEGCRGIDKRHWNSQCRTTQSYVRALTMDSKKRIGWRFIRIDTSCVCTLTIKRGR	refractory to neuronal differentiation
